Assay results as given in patent publication US20210070872A1 (AGENUS, published 2021).

T1: biotinylated GITR (human, UniProt Q9Y5U5 26-161, limits assumed, biotinylated (sites not given))
T1 construct: also called GITR-bio; Biotin-GITR
T1 sequence: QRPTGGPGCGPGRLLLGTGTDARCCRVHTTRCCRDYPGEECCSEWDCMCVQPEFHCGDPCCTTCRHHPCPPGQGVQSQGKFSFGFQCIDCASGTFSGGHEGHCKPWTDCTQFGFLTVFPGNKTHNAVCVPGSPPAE


Target: T1, biotinylated GITR
Test: BLI (Octet), biotin-GITR on streptavidin tips, antibody supernatant
Method: Several hundred germlined antibodies were selected based on binding kinetics as determined by Octet measurements (Octet RED 96 system; ForteBio™ Inc., Menlo Park, Calif.). The experimental procedure was configured according to the instruction manual of the instrument. Biotin-GITR was bound to Streptavidin biosensor (SA) and PBS (pH 7.4) was used as a blank control. Briefly, the interaction analyses were conducted at 30° C. in running buffer (PBS, 0.05% Tween, pH7.4). Sensor tips were pre-wet for 10 minutes in running buffer immediately prior to use, and the micro plates used in the Octet were filled with 200 μl of sample or buffer per well and agitated at 800 rpm. For the experiments, commercially available precoated SA tips were used. Biotinylated GITR was loaded onto the ForteBio SA fibers in PBS pH7.4 for 10 minutes and washed for 4 minutes. For the association phase, the ligand-coated SA tips were immersed for 5 minutes in cell culture supernatant that was diluted 1:10 in running buffer prior to the measurement. Dissociation of the antibody-antigen complex was measured in wells containing the Octet buffer alone for 5 minutes. After each run, the tips were regenerated with Glycine (10 mM, pH 2.0). Affinity, Kₒₙ and Koff were determined with Octet evaluation software v6.3 using a 1:1 binding model with local full fitting.

Binder	Kd	koff	kon
germline variant antibody 45 (H1916E05 / K1916E05) (antibody, V domains shown, IGHG1/IGKC expression vectors; measured from CHO culture supernatant; also called Antibody ID 45) VH: QVQLVQSGAEVKKPGASVKVSCKGSGYTFTEYAMYWVRQAPGQGLEWIGLIRTYSGGVSYNQKFQGRVTMTVDTSISTAYMELSRLRSDDTAVYYCAKSGTVRGFAYWGQGTFVTVSS VL: DIVMTQSPDSLAVSLGERATINCKSSQSLLNSGNQKNYLSWYHQKPGQPPKLLIYWASTRESGVPDRFTGSGSGTDFTLTISSVQAEDVAVYYCQNDYSFPYTFGQGTKLEIK	0.562 nM	0.000255 s⁻¹	455000 M⁻¹ s⁻¹
germline variant antibody 61 (H1917A02 / K1917A02) (antibody, V domains shown, IGHG1/IGKC expression vectors; measured from CHO culture supernatant; also called Antibody ID 61) VH: QVQLVQSGTEVKKPGASVKVSCKASGYTFTEYAMHWVRQAPGQGLEWMGLIRTYSGGVSYNQKFQERVTMTVDKSISTAYMELSRLRSDDTAVYYCAKSGTVRGFAYWGQGTLVTVSS VL: DIVMTQSPDSLAVSLGERATINCKSSQSLLNSGNQKNYLSWYQQKPGQPPKLLIYWASTRESGVPDRFSGSGSGTDFTLTISSVQAEDVAVYYCQNDYSFPYTFGQGTKLEIK	1.83 nM	0.00141 s⁻¹	772000 M⁻¹ s⁻¹
germline variant antibody 68 (H1917B01 / K1917B01) (antibody, V domains shown, IGHG1/IGKC expression vectors; measured from CHO culture supernatant; also called Antibody ID 68) VH: QVQLVQSGTEVKKPGASVKVSCKGSGYTFTGYAMYWVRQAPGQGLEWIGLIRTYSGGVTYNQKFRGRVTMTVDTSISTAYMELSRLRSDDTAVYYCAKSGTVRGFAYWGQGTLVTVSS VL: DIVMTQSPDSLAVSLGERATINCKSSQSLLNSGNQKNYLTWYQQKPGQPPKMLIYWASTRESGVPDRFTGSGSGTDFTLTISSLQAEDVAVYYCQNDYSYPYTFGQGTKLEIK	1.55 nM	0.000447 s⁻¹	289000 M⁻¹ s⁻¹
germline variant antibody 75 (H1917C09 / K1917C09) (antibody, V domains shown, IGHG1/IGKC expression vectors; measured from CHO culture supernatant; also called Antibody ID 75) VH: QVQLVQSGTEVKKPGASVKVSCKGSGYTFTGYAMYWVRQAPGQGLEWIGVIRTYSGGVTYNQKFQGRVTMTVDKSISTAYMELSRLRSDDTAVYYCAKSGTVRGFAYWGQGTLVTVSS VL: DIVMTQSPDSLAVSLGERATINCKSSQSLLNSGNQKNYLSWYHQKPGQPPKLLIYWASTRESGVPDRFTGSGSGTDFTLTISSLQAEDVAVYYCQNDYSYPYTFGQGTKLEIK	2.92 nM	0.000925 s⁻¹	317000 M⁻¹ s⁻¹
germline variant antibody 52 (H1916F05 / K1916F05) (antibody, V domains shown, IGHG1/IGKC expression vectors; measured from CHO culture supernatant; also called Antibody ID 52) VH: QVQLVQSGTEVKKPGASVKVSCKGSGYTFTDYAMYWVRQAPGQGLEWMGLIRTYSGGVSYNQKFRERVTMTVDKSISTAYMELSRLRSDDTAVYYCAKSGTVRGFAYWGQGTLVTVSS VL: DIVMTQSPDSLAVSLGERATINCKSSQSLLNSGNQKNYLTWYQQKPGQPPKLLIYWASTRESGVPDRFSGSGSGTDFTLTISSLQAEDVAVYHCQNDYSFPYTFGQGTKLEIK	1.07 nM	0.000426 s⁻¹	397000 M⁻¹ s⁻¹
germline variant antibody 50 (H1916F03 / K1916F03) (antibody, V domains shown, IGHG1/IGKC expression vectors; measured from CHO culture supernatant; also called Antibody ID 50) VH: QVQLVQSGTEVKKPGASVKVSCKASGYTFTDYAMYWVRQAPGQGLEWIGLIRTFSGGVSYNQKFKERVTMTVDKSISTAYMELSRLRSDDTAVYYCAKSGTVRGFAYWGQGTLVTVSS VL: DIVMTQSPDSLAVSLGERATINCKSSQSLLNSSNQKNYLTWYQQKPGQPPKMLIYWASTRESGVPDRFSGSGSGTDFTLTISSLQAEDVAVYYCQNDYSYPYTFGQGTKLEIK	1.01 nM	0.000254 s⁻¹	252000 M⁻¹ s⁻¹
germline variant antibody 46 (H1916E06 / K1916E06) (antibody, V domains shown, IGHG1/IGKC expression vectors; measured from CHO culture supernatant; also called Antibody ID 46) VH: QVQLVQSGAEVKKPGASVKVSCKASGYTFTEYAMYWVRQAPGQGLEWMGLIRTFSGDLSYNQKFRGRVTMTVDTSISTAYMELSRLRSDDTAVYYCAKSGTVRGFAYWGQGTLVTVSS VL: DIVMTQSPDSLAVSLGERATINCKSSQSLLNSGNQKNYLSWYHQKPGQPPKLLIYWASTRESGVPDRFTGSGSGTDFTLTISSLQAEDVAVYHCQNDYSYPYTFGQGTKLEIK	0.619 nM	0.000248 s⁻¹	400000 M⁻¹ s⁻¹
germline variant antibody 85 (H1917E02 / K1917E02) (antibody, V domains shown, IGHG1/IGKC expression vectors; measured from CHO culture supernatant; also called Antibody ID 85) VH: QVQLVQSGAEVKKPGASVKVSCKASGYTFTEYAMYWVRQAPGQGLEWMGVIRTYSGGVTYNQKFKDRATMTVDTSISTAYMELSRLRSDDTAVYYCAKSGTVRGFAYWGQGTLVTVSS VL: DIVMTQSPDSLAVSLGERATINCKSSQSLLNSSNQKNYLSWYHQKPGQPPKLLIYWASTRESGVPDRFSGSGSGTDFTLTISSVQAEDVAVYYCQNDYSYPYTFGQGTKLEIK	1.28 nM	0.00037 s⁻¹	289000 M⁻¹ s⁻¹
germline variant antibody 47 (H1916E08 / K1916E08) (antibody, V domains shown, IGHG1/IGKC expression vectors; measured from CHO culture supernatant; also called Antibody ID 47) VH: QVQLVQSGAEVKKPGASVKVSCKASGYTFTDYAMYWVRQAPGQGMEWMGVIRTYSGGVTYNQKFRDRVTMTVDKSISTAYMELSRLRSDDTAVYYCAKSGTVRGFADWGQGTLVTVSS VL: DIVMTQSPDSLAVSLGERATINCKSSQSLLNSGNQKNYLSWYQQKPGQPPKLLIYWASTRESGVPDRFTGSGSGTDFTLTISSVQAEDVAVYHCQNDYSFPYTFGQGTKLEIK	2.06 nM	0.000804 s⁻¹	391000 M⁻¹ s⁻¹
germline variant antibody 54 (H1916F09 / K1916F09) (antibody, V domains shown, IGHG1/IGKC expression vectors; measured from CHO culture supernatant; also called Antibody ID 54) VH: QVQLVQSGAEVKKPGASVKVSCKASGYTFTEYAMHWVRQAPGQGLEWMGLIRTYSGGVSYNQKFQGRATMTVDTSISTAYMELSRLRSDDTAVYYCAKSGTVRGFAYWGQGTLVTVSS VL: DIVMTQSPDSLAVSLGERATINCKSSQSLLNSSNQKNYLTWYQQKPGQPPKLLIYWASTRESGVPDRFTGSGSGTDFTLTISSVQAEDVAVYHCQNDYSFPYTFGQGTKLEIK	1.26 nM	0.000688 s⁻¹	548000 M⁻¹ s⁻¹
germline variant antibody 58 (H1916G04 / K1916G04) (antibody, V domains shown, IGHG1/IGKC expression vectors; measured from CHO culture supernatant; also called Antibody ID 58) VH: QVQLVQSGAEVKKPGASVKVSCKGSGYTFTDYAMYWVRQAPGQGLEWMGVIRTYSGGVTYNQKFKGRATMTVDKSISTAYMELSRLRSDDTAVYYCAKSGTVRGFAYWGQGTLVTVSS VL: DIVMTQSPDSLAVSLGERATINCKSSQSLLNSGNQKNYLSWYHQKPGQPPKLLIYWASTRESGVPDRFSGSGSGTDFTLTISSVQAEDVAVYHCQNDYSYPYTFGQGTKLEIK	1.58 nM	0.000415 s⁻¹	263000 M⁻¹ s⁻¹
germline variant antibody 59 (H1916G05 / K1916G05) (antibody, V domains shown, IGHG1/IGKC expression vectors; measured from CHO culture supernatant; also called Antibody ID 59) VH: QVQLVQSGAEVKKPGASVKVSCKASGYTFTEYAMYWVRQAPGQGLEWMGLIRTYSGGVSYNQKFRDRVTMTVDKSISTAYMELSRLRSDDTAVYYCAKSGTVRGFAYWGQGTLVTVSS VL: DIVMTQSPDSLAVSLGERATINCKSSQSLLNSSNQKNYLSWYHQKPGQPPKLLIYWASTRESGVPDRFSGSGSGTDFTLTISSVQAEDVAVYHCQNDYSYPYTFGQGTKLEIK	1.04 nM	0.000312 s⁻¹	299000 M⁻¹ s⁻¹
germline variant antibody 86 (H1917E03 / K1917E03) (antibody, V domains shown, IGHG1/IGKC expression vectors; measured from CHO culture supernatant; also called Antibody ID 86) VH: QVQLVQSGAEVKKPGASVKVSCKGSGYTFTEYAMYWVRQAPGQGMEWMGVIRTYSGGVTYNQKFRDRATMTVDTSISTAYMELSRLRSDDTAVYYCAKSGTVRGFAYWGQGTLVTVSS VL: DIVMTQSPDSLAVSLGERATINCKSSQSLLNSGNQKNYLTWYHQKPGQPPKLLIYWASTRESGVPDRFSGSGSGTDFTLTISSVQAEDVAVYYCQNDYSYPYTFGQGTKLEIK	0.75 nM	0.000432 s⁻¹	577000 M⁻¹ s⁻¹
germline variant antibody 55 (H1916F10 / K1916F10) (antibody, V domains shown, IGHG1/IGKC expression vectors; measured from CHO culture supernatant; also called Antibody ID 55) VH: QVQLVQSGTEVKKPGASVKVSCKASGYTFTDYAMYWVRQAPGQGLEWIGLIRTYSGGVTYNQKFQGRVTMTVDTSISTAYMELSRLRSDDTAVYYCAKSGTVRGFAYWGQGTLVTVSS VL: DIVMTQSPDSLAVSLGERATINCKSSQSLLNSGNQKNYLSWYQQKPGQPPKLLIYWASTRESGVPDRFSGSGSGTDFTLTISSVQAEDVAVYHCQNDYSFPYTFGQGTKLEIK	1.27 nM	0.00055 s⁻¹	435000 M⁻¹ s⁻¹
germline variant antibody 76 (H1917C10 / K1917C10) (antibody, V domains shown, IGHG1/IGKC expression vectors; measured from CHO culture supernatant; also called Antibody ID 76) VH: QVQLVQSGAGVKKPGASVKVSCKGSGYTFTDYAMHWVRQAPGQGLEWMGLIRTFSGDVSYNQKFRERATMTVDKSISTAYMELSRLRSDDTAVYYCAKSGTVRGFAYWGQGTLVTVSS VL: DIVMTQSPDSLAVSLGERATINCKSSQSLLNSGNQKNYLSWYQQKPGQPPKMLIYWASTRESGVPDRFSGSGSGTDFTLTISSVQAEDVAVYHCQNDYSFPYTFGQGTKLEIK	2.72 nM	0.00105 s⁻¹	386000 M⁻¹ s⁻¹
germline variant antibody 80 (H1917D07 / K1917D07) (antibody, V domains shown, IGHG1/IGKC expression vectors; measured from CHO culture supernatant; also called Antibody ID 80) VH: QVQLVQSGTEVKKPGASVKVSCKASGYTFTEYAMHWVRQAPGQGMEWMGLIRTFSGDVSYNQKFRGRVTMTVDTSISTAYMELSRLRSDDTAVYYCAKSGTVRGFAYWGQGTLVTVSS VL: DIVMTQSPDSLAVSLGERATINCKSSQSLLNSSNQKNYLTWYQQKPGQPPKLLIYWASTRESGVPDRFTGSGSGTDFTLTISSLQAEDVAVYYCQNDYSFPYTFGQGTKLEIK	0.696 nM	0.000454 s⁻¹	652000 M⁻¹ s⁻¹
germline variant antibody 79 (H1917D04 / K1917D04) (antibody, V domains shown, IGHG1/IGKC expression vectors; measured from CHO culture supernatant; also called Antibody ID 79) VH: QVQLVQSGTEVKKPGASVKVSCKGSGYTFTEYAMHWVRQAPGQGMEWMGLIRTYSGGVTYNQKFRERVTMTVDKSISTAYMELSRLRSDDTAVYYCAKSGTVRGFAYWGQGTLVTVSS VL: DIVMTQSPDSLAVSLGERATINCKSSQSLLNSGNQKNYLTWYHQKPGQPPKMLIYWASTRESGVPDRFSGSGSGTDFTLTISSLQAEDVAVYYCQNDYSYPYTFGQGTKLEIK	2.87 nM	0.00129 s⁻¹	450000 M⁻¹ s⁻¹
germline variant antibody 71 (H1917B07 / K1917B07) (antibody, V domains shown, IGHG1/IGKC expression vectors; measured from CHO culture supernatant; also called Antibody ID 71) VH: QVQLVQSGAEVKKPGASVKVSCKASGYTFTGYAMYWVRQAPGQGMEWMGVIRTFSGGVTYNQKFRGRATMTVDTSISTAYMELSRLRSDDTAVYYCAKSGTVRGFAYWGQGTLVTVSS VL: DIVMTQSPDSLAVSLGERATINCKSSQSLLNSSNQKNYLTWYQQKPGQPPKLLIYWASTRESGVPDRFTGSGSGTDFTLTISSVQAEDVAVYHCQNDYSYPYTFGQGTKLEIK	0.241 nM	0.000252 s⁻¹	1.05e+06 M⁻¹ s⁻¹
